Laboratory results from publication PMC2954370.

Target: HIV-1 Env gp140 of isolate JRFL (HIV-1 isolate JRFL (clade B)) (UniProt Q75760)
Experiment: ELISA

human soluble CD4 (first two domains of the human CD4) (from UniProt P01730 26-203) (domain or fragment)
EC50: 6 nM
